Each block holds one binder with its values, some of them ahead of it. Where no end group is shown, it is not given here. Me3 = trimethyl-lysine (Kme3); Me2 = dimethyl-lysine (Kme2)
Assays:
LEDGF/p75 = LEDGF/p75 (UniProt O75475 1-530); test: SEC
LEDGF/p52 = LEDGF/p52 (UniProt O75475-2 1-333); test: NMR titration

binding result (LEDGF/p75): binds
B1: PogZ(1117–1410) (domain or fragment)
chain: SNAASLPLSMIVAIDEISLFLDTEVLSSDDRKENALQTVGTGEPWCDVVLAILADGTVLPTLVFYRGQMDQPANMPDSILLEAKESGYSDDEIMELWSTRVWQKHTACQRSKGMLVMDCHRTHLSEEVLAMLSASSTLPAVVPAGCSSKIQPLDVCIKRTVKNFLHKKWKEQAREMADTACDSDVLLQLVLVWLGEVLGVIGDCPELVQRSFLVASVLPGPDGNINSPTRNADMQEELIASLEEQLKLSGEHSESSTPRPRSSPEETIEPESLHQLFEGESETESFYGFEEADLDLMEI

Kd (LEDGF/p52): 5.4 mM
Binder: SAPATGGVK(Me)KPHRY [histone H3 peptide SAPATGGVKme1KPHRY]

Kd (LEDGF/p52): 6 mM
Binder: SAPATGGVKKPHRY [histone H3 peptide SAPATGGVKKPHRY, unmodified]

Kd (LEDGF/p52): 2.7 mM
Binder: SAPATGGVK(Me3)KPHRY [histone H3 peptide SAPATGGVKme3KPHRY]

Kd (LEDGF/p52): 2.4 mM
Binder: SAPATGGVK(Me2)KPHRY [histone H3 peptide SAPATGGVKme2KPHRY]

— article PMC10570030 (Nucleic Acids Research, 2023)
